Experimental data as given in patent US12655398B2, “Multipartite luciferase” (Promega Corporation, priority 2018, dated 2026).

Tests used:
p65 = test: Nuclear translocation assay (p65-HiBiT HeLa cells, LgBiT*-nuclear sensor); assay type: cell-based; conditions: for Time to reach maximum accumulation of p65 in the nucleus upon stimulation: real time measurement
Text: A nuclear translocation assay was developed using measuring p65 movement from cytosol to the nucleus under TNFa stimulus. The nuclear translocation assay was set up similar to the membrane translocation assay. […] The assay allows measurement of protein translocation in real time.

SmTrip10 pep86 / pep263 = test: Luminescence of LgBiT and LgTrip 2098 E. coli lysates with complementary peptide; assay type: biochemical; conditions: E. coli lysate, 25 nM peptide
Description: (275 rpm) in a volume of 50 mL. From these cultures, 100× dilutions were made into the same media and the cultures grown at 37 C (275 rpm) for 3 h and then cooled to 25° C. before adding rhamnose (inducing agent for protein overexpression) to a final concentration of 0.2%. Cultures were then grown (induced) for 22 h at 25° C. (275 rpm) at which time cultures were harvested, and the resulting pellets stored at −20° C. until processing. To lyse cells, pellets were removed from −20° C., resuspended in 50 mL of PBS pH 7.2, and taken through 3 sequential freeze thaw cycles (−70° C. to 22° C.), centrifuged to produce soluble fractions, and then kept cold (on ice) until assaying. Lysates and peptide(s) (25 nm final concentration) were incubated together for 10 minutes at 25° C. prior to the addition of NanoGlo® reagent. After addition of reagent, plates were incubated for another 5 min at 35° C. and read over time to measure luminescence (RLU) using a Tecan Infinite F500 plate reader.

[1] = system: SmTrip10 pep86 and SmTrip9 pep245; test: LgTrip 2098 activation by separate β9 and β10-like peptides; assay type: biochemical; conditions: 10× concentrated lysate, peptides at 500 nM
Description: The luminescence of LgTrip 2098 (SEQ ID NO: 31) was monitored over time in the presence of separate peptides corresponding to the β10 and β9 portions of the full-length luciferase (SmTrip10 pep86 (SEQ ID NO: 25) and SmTrip9 pep245) (SEQ ID NO: 23) (FIG. 2). Similar experimental protocols were used as in Example 1; however, a 10× concentrated lysate was used, Peptides SmTrip10 pep86 and SmTrip9 pep245 were used at 500 nM, and 0.001% Prionex added to reactions. […] Controls with no peptides added or only one of the peptides added produced near the background of the plate reader.

[2] = Effect of urea on activity; assay type: physicochemical
Description: To test activity in the presence of urea, each enzyme was diluted to 1 uM in TBS+0.01% BSA+0.01% Tergitol and further diluted to 2 nM in TBS+0.01% BSA+0.01% Tergitol. […] A two-fold titration series was prepared for each, starting with 10M urea in 25 mM Tris pH 7.5+0.01% Tergitol. 10 uM furimazine was added to each sample of the titration series, and 5 ul of each enzyme or enzyme+pep263 (SEQ ID NO: 35) were combined with 45 ul of each substrate additive mixture. Plates were incubated for 3 minutes and then read on GMM+.
To test the effect of prolonged exposure to urea, each enzyme was diluted to 1 uM, and a two-fold titration series was prepared starting with 10M urea in 25 mM Tris pH 7.5+0.01% Tergitol. 2 ul of each enzyme was added to 198 ul of the urea titration (10 nM final of each enzyme). The “no” additive control was TBS+0.01% BSA+0.01% Tergitol. Samples were incubated for 26 hours. After incubation, samples were diluted 1:10,000 into TBS+0.01% BSA+0.01% Tergitol (10 ul in 990 ul two times). […] 50 ul of each sample was combined with 50 ul of NanoGlo® buffer+50 uM Furimazine. Plates were incubated for 3 minutes and then read on GMM+.

Effect of pH on activity = assay type: physicochemical; conditions: pH titration series of universal buffer
Description: A universal buffer was prepared containing 25 mM of each: NaCitrate, MES, PIPES, HEPES, TAPS, and Thiourea in 0.5% Tergitol. The buffer was divided into 8 aliquots of 20 ml, and NaOH or HCl was added to create a pH titration series.
To test effect of pH on activity, each enzyme was diluted to 1 uM and then diluted to 0.4 nM in 3 ml of TBS+0.01% BSA+0.01% Tergitol. […] Assay reagent for each pH buffer tested (Table 5) (20 ul of furimazine in 980 of buffer). 10 ul of each enzyme/peptide dilution was combined with 50 ul of assay reagent. Plates were incubated for 3 minutes and read on GMM+.
To test the effect of prolonged exposure varying pH, each enzyme was diluted to 1 uM in TBS+0.01% BSA+0.01% Tergitol, which was then diluted to 20 nM in each buffer. T=0 samples were mixed and then diluted 1:10 into 200 mM HEPES pH 7.5+0.01% BSA+0.01% Tergitol and stored at 4° C. T=8 samples were mixed and then diluted 1:10 into 200 mM HEPES pH 7.5+0.01% BSA+0.01% Tergitol store at 4° C. T=24 samples were mixed and then diluted 1:10 into 200 mM HEPES pH 7.5+0.01% BSA+0.01% Tergitol store at 4° C. […] 40 ul of each sample was diluted with 40 ul of NanoGlo® buffer+40 uM furimazine, incubated for 3 minutes, and then read on GMM+.

TNFα
EC50, titration of TNFα (p65; p65-HiBiT cell line transfected with LgBiT*-nuclear sensor): 0.7 ng/mL
Fold-response, titration of TNFα (p65; p65-HiBiT cells, LgBiT*-nuclear sensor): 4 fold
Time to reach maximum accumulation of p65 in the nucleus upon stimulation (p65): 30 min
Time to reach maximum accumulation of p65 in the nucleus upon stimulation (p65; listed as TNFa): approximately 30 min

B1: LgTrip 2098: β1-8-like polypeptide, SEQ ID NO: 17; SEQ ID NO: 31 with His tag (protein)
chain: MVFTLEDFVGDWEQTAAYNLDQVLEQGGVSSLLQNLAVSVTPIQRIVRSGENALKIDIHVIIPYEGLSADQMAQIEEVFKVVYPVDDHHFKVILPYGTLVIDGVTPNMLNYFGRPYEGIAVFDGKKITVTGTLWNGNKIIDERLITPD
Gain in signal in the presence of complementary peptide (SmTrip10 pep86 / pep263): greater
Activation by separate β9 and β10 peptides [1]: activated by the addition of SmTrip10 pep86 and SmTrip9 pep245
Activity after prolonged (26 hour) exposure to urea ([2]; 26 hours incubation in urea titration): regain activity upon prolonged treatment with urea
Activity in the presence of urea (susceptibility to inactivation) ([2]; urea titration from 10M, with pep263 for LgBiT and LgTrip): least effected by urea

B2: LgTrip: β1-8-like polypeptide corresponding to SEQ ID NO: 17; variants LgTrip 2098 and LgTrip 3546 (protein)
chain: B1 chain
Effect of pH on activity (Effect of pH on activity): resistant to a wide pH range
